Measurements taken from patent US20220064322A1 (JACOBIO PHARMACEUTICALS, published 2022).

T1: cynomolgus CD73 on the cell surface (293T/17-cynoCD73 cells) (cynomolgus (Macaca fascicularis), UniProt P21589 27-547 (human entry))
T1 chain: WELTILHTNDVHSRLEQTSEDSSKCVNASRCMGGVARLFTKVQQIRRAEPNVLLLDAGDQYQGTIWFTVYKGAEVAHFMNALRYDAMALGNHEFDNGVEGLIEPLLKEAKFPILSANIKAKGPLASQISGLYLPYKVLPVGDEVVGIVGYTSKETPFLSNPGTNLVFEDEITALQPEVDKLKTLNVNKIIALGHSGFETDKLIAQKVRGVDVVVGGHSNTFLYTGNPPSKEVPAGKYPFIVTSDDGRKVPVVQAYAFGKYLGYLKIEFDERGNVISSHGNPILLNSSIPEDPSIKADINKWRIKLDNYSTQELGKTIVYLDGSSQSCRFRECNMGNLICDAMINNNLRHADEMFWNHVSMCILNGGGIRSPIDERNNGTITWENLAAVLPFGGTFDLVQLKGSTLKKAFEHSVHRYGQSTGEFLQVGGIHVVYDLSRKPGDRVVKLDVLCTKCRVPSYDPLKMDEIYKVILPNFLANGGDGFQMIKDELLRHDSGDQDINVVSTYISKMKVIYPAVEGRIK

T2: human CD73 ecto-domain recombinant protein (huCD73) (human, UniProt P21589 27-547)
T2 construct: also called soluble huCD73; soluble recombinant CD73
T2 sequence: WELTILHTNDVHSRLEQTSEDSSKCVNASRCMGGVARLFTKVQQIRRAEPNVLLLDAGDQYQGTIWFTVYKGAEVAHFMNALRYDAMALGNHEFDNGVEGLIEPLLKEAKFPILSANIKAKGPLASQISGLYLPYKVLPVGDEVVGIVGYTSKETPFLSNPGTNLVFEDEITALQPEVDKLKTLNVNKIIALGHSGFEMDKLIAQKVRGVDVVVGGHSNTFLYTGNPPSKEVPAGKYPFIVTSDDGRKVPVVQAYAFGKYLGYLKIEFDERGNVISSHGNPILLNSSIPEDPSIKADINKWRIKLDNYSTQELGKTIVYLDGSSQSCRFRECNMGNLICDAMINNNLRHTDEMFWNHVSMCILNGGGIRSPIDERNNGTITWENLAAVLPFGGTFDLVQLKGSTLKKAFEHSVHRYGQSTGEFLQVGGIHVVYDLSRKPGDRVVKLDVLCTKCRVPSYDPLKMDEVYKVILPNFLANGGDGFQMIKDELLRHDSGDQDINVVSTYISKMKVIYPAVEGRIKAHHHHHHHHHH

B1: JB24H3L2 (antibody, human IgG1, kappa, V domains shown)
VH: QVQLVQSGAEVKKPGASVKMSCKASGYTFTDYNMHWVKQSHGKSLEWIGYIKPHNAGTTYNPKFEGRATLTVDTSASTAYMELRSLRSEDTAVYYCVRSDFLYWYFDVWGQGTTVTVSS
VL: DIQMTQSPSSLSASVGDRVTITCTASSSVSSSYLHWYQQKPGSAPKLWIYSTSNLASGVPSRFSGSGSGTDYTLTISSLQPEDFATYYCHQYHRSPLTFGAGTKLEIKR
notes: Humanized antibody of JB24Chi, human IgG1 / kappa
B2: JB24H3L3 (antibody, human IgG1, kappa, V domains shown)
VH: QVQLVQSGAEVKKPGASVKMSCKASGYTFTDYNMHWVKQSHGKSLEWIGYIKPHNAGTTYNPKFEGRATLTVDTSASTAYMELRSLRSEDTAVYYCVRSDFLYWYFDVWGQGTTVTVSS
VL: DIVMTQSPSSLSASVGDRVTITCTASSSVSSSYLHWYQQKPGSSPKLWIYSTSNLASGVPGRFSGSGSGTDYTLTISSLQPEDFATYYCHQYHRSPLTFGAGTKLEIKR
notes: as for B1
B3: 94H1L3 hIgG2 (antibody)
heavy: QVQLVQSGAEVKKPGASVKVSCKASGYTFTSYWMHWVRQAPGQGLEWMGYINPSSGYTKSNQKFKDRVTMTADTSTSTAYMELSSLRSEDTAVYYCGRWLLSAWFAYWGQGTLVTVSSASTKGPSVFPLAPCSRSTSESTAALGCLVKDYFPEPVTVSWNSGALTSGVHTFPAVLQSSGLYSLSSVVTVPSSNFGTQTYTCNVDHKPSNTKVDKTVERKCCVECPPCPAPPVAGPSVFLFPPKPKDTLMISRTPEVTCVVVDVSHEDPEVQFNWYVDGVEVHNAKTKPREEQFNSTFRVVSVLTVVHQDWLNGKEYKCKVSNKGLPAPIEKTISKTKGQPREPQVYTLPPSREEMTKNQVSLTCLVKGFYPSDIAVEWESNGQPENNYKTTPPMLDSDGSFFLYSKLTVDKSRWQQGNVFSCSVMHEALHNHYTQKSLSLSPGK
light: DIQMTQSPSSLSASVGDRVTITCKASQDINTYLSWFQQKPGKSPKSLIYRSNILVDGVPSRFSGSGSGQDYTLTISSLQPEDFAIYYCLQYDDFPYTFGQGTKLEIKRTVAAPSVFIFPPSDEQLKSGTASVVCLLNNFYPREAKVQWKVDNALQSGNSQESVTEQDSKDSTYSLSSTLTLSKADYEKHKVYACEVTHQGLSSPVTKSFNRGEC
B4: JB94H2L1 (antibody, human IgG1, kappa, V domains shown)
VH: QVQLVQSGAEVKKPGASVKVSCKASGYTFTSYWMHWVRQRPGQGLEWMGYINPSSGYTKSNQKFKDRVTLTADTSTSTAYMELSSLRSEDTAVYYCGRWLLSAWFAYWGQGTLVTVSS
VL: DIQMTQSPSSLSASVGDRVTITCKASQDINTYLSWFQQKPGKAPKSLIYRSNILVDGVPSRFSGSGSGQDFTLTISSLQPEDFAIYYCLQYDDFPYTFGQGTKLEIKR
notes: Humanized antibody of the 94 clone, human IgG1 / kappa
B5: JB94H3L3 (antibody, human IgG1, kappa, V domains shown)
VH: QVQLQQSGAEVKKPGASVKLSCKASGYTFTSYWMHWVRQRPGQGLEWIGYINPSSGYTKSNQKFKDRATLTADTSTSTAYMELSSLRSEDTAVYYCGRWLLSAWFAYWGQGTLVTVSS
VL: DIQMTQSPSSLSASVGDRVTITCKASQDINTYLSWFQQKPGKSPKSLIYRSNILVDGVPSRFSGSGSGQDYTLTISSLQPEDFAIYYCLQYDDFPYTFGQGTKLEIKR
notes: as for B4
B6: JB94Chi (antibody, human IgG1, kappa)
heavy: not shown
light: DIRMTQSPSSMYASLGERVTITCKASQDINTYLSWFQQKPGKSPKSLIYRSNILVDGVPSRFSGSGSGQDYSLTISSLEYEDMGIYYCLQYDDFPYTFGGGTKLEIKRTVAAPSVFIFPPSDEQLKSGTASVVCLLNNFYPREAKVQWKVDNALQSGNSQESVTEQDSKDSTYSLSSTLTLSKADYEKHKVYACEVTHQGLSSPVTKSFNRGEC
notes: Chimeric antibody: mouse Fv of 94A12G11F with human IgG1 and human kappa constant regions

Assays:
[1] = biological target: T1, cynomolgus CD73 on the cell surface …; test: cell-based or functional assay
[2] = biological target: T1, cynomolgus CD73 on the cell surface …; test: flow cytometry on 293T/17-Cyno CD73 cells
Method: (§1) 2×10⁶ cells resuspended in PBS buffer were distributed into 96-well plates and incubated with gradient diluted humanized antibodies for 1 h at refrigerator 4° C. or on ice, then the cells was centrifuged for 3 min 1500 rpm at 4° C. and washed three times by PBS, and diluted APC-labeled goat anti-human polyclonal antibody (Biolegend) were incubated for 30 min at refrigerator 4° C. Finally, the cells were washed three times with PBS as described above and analyzed on MACSQuant flow cytometer. GraphPad Prism software was used to generate data graphs and statistical affinity data.
(§2) The samples to be tested were incubated for 1 h at 4° C. after gradient dilution. After washing, 100 μL of APC-labeled secondary antibody was added to each well and incubated for 30 min. After washing, detecting on machine and the fluorescence value was read. GraphPad Prism software was used to generate data graphs and statistical affinity data.

[3] = biological target: T2, human CD73 ecto-domain recombinant …; test: indirect ELISA, coated huCD73 recombinant protein
Method: (§3) Incubated with gradient diluted 100 μL/well of antibodies for 1 h at room temperature. After the plates were washed 3 times with 200 ul/well of PBST, 100 ul of diluted HRP-labeled secondary antibody at a ratio of 1:5000 was added to each well, and the plates were incubated for 1 hour at room temperature. The plates were washed 3 times with 200 ul/well of PBST, 100 ul of TMB was added to each well and reacted for 5 minutes at room temperature in the dark. […] read the OD value. The affinity of humanized antibodies and parent antibodies were similar to the antigen (table 9).

[4] = biological target: T1, cynomolgus CD73 on the cell surface …; test: flow cytometry on 293T/17-Cyno CD73 cells, curve fit
Method: as §1, §2

[5] = biological target: T2, human CD73 ecto-domain recombinant …; test: indirect ELISA, coated huCD73 recombinant protein, curve fit
Method: as §3

[6] = biological target: T2, human CD73 ecto-domain recombinant …; test: indirect ELISA, plate coated with 1 ug/ml huCD73 recombinant protein, HRP-labelled secondary antibody, RFU
Method: as §3

Row | Binder | IC50, blockade of 5'exonuclease activity on 293T/17-Cyno CD73 cells [1] [pM] | EC50 [2] [pM] | EC50 [3] [pM] | Bottom [4] [fluorescence] | Top [4] [fluorescence] | Bottom [5] [OD value] | Top [5] [OD value] | EC50 (read off the curve) [6] [µg/mL]
1 | B1 | 4 | 3590 | 20.8 | 0.509 | 48.7 | 89.1 | 7140 | ~0.2
2 | B2 | 3 | 3730 | 22.8 | 0.917 | 34 | 9.8 | 7310 | ~0.2
3 | B3 | 21 | – | – | – | – | – | – | –
4 | B4 | 0.1 | 7970 | 25.2 | 0.22 | 82 | -142 | 7110 | ~0.02
5 | B5 | 2 | 9820 | 29.2 | 1.4 | 125 | 320 | 8900 | ~0.03
6 | B6 | 1 | 8590 | 35.7 | 1.45 | 124 | 152 | 8470 | ~0.03
